Assay results as given in US20230340137A1 (published 2023).

Molecular target: T1, B-cell maturation antigen (BCMA) (human, UniProt Q02223 1-184)
T1 sequence (looked up): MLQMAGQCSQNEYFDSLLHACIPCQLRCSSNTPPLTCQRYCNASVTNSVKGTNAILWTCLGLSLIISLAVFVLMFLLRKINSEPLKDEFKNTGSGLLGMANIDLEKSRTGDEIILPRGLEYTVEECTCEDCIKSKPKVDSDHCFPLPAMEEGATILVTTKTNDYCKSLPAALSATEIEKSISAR
Test: cell-based or functional assay

B1: PF-06863135 (bispecific antibody, human IgG2)
heavy 1: EVQLLESGGGLVQPGGSLRLSCAASGFTFSSYPMSWVRQAPGKGLEWVSAIGGSGGSLPYADIVKGRFTISRDNSKNTLYLQMNSLRAEDTAVYYCARYWPMDIWGQGTLVTVSSASTKGPSVFPLAPCSRSTSESTAALGCLVKDYFPEPVTVSWNSGALTSGVHTFPAVLQSSGLYSLSSVVTVPSSNFGTQTYTCNVDHKPSNTKVDKTVERKCEVECPECPAPPVAGPSVFLFPPKPKDTLMISRTPEVTCVVVAVSHEDPEVQFNWYVDGVEVHNAKTKPREEQFNSTFRVVSVLTVVHQDWLNGKEYKCKVSNKGLPSSIEKTISKTKGQPREPQVYTLPPSREEMTKNQVSLTCEVKGFYPSDIAVEWESNGQPENNYKTTPPMLDSDGSFFLYSKLTVDKSRWQQGNVFSCSVMHEALHNHYTQKSLSLSPGK
light 1: EIVLTQSPGTLSLSPGERATLSCRASQSVSSSYLAWYQQKPGQAPRLLMYDASIRATGIPDRFSGSGSGTDFTLTISRLEPEDFAVYYCQQYQSWPLTFGQGTKVEIKRTVAAPSVFIFPPSDEQLKSGTASVVCLLNNFYPREAKVQWKVDNALQSGNSQESVTEQDSKDSTYSLSSTLTLSKADYEKHKVYACEVTHQGLSSPVTKSFNRGEC
heavy 2: EVQLVESGGGLVQPGGSLRLSCAASGFTFSDYYMTWVRQAPGKGLEWVAFIRNRARGYTSDHNPSVKGRFTISRDNAKNSLYLQMNSLRAEDTAVYYCARDRPSYYVLDYWGQGTTVTVSSASTKGPSVFPLAPCSRSTSESTAALGCLVKDYFPEPVTVSWNSGALTSGVHTFPAVLQSSGLYSLSSVVTVPSSNFGTQTYTCNVDHKPSNTKVDKTVERKCRVRCPRCPAPPVAGPSVFLFPPKPKDTLMISRTPEVTCVVVAVSHEDPEVQFNWYVDGVEVHNAKTKPREEQFNSTFRVVSVLTVVHQDWLNGKEYKCKVSNKGLPSSIEKTISKTKGQPREPQVYTLPPSREEMTKNQVSLTCLVKGFYPSDIAVEWESNGQPENNYKTTPPMLDSDGSFFLYSRLTVDKSRWQQGNVFSCSVMHEALHNHYTQKSLSLSPGK
light 2: not shown
  EC50 of cell viability (killing) of H929-Luc cells co-cultured with human CD3+ T cells, 72 hr, luminescence; with GSI: 0.0055 nM
  EC50 of cell viability (killing) of H929-Luc cells co-cultured with human CD3+ T cells, 72 hr, luminescence; without GSI: 0.167 nM
  EC50 of cell viability (killing) of Molp8-Luc cells co-cultured with human CD3+ T cells, 72 hr, luminescence; with GSI: 0.0202 nM
  EC50 of cell viability (killing) of Molp8-Luc cells co-cultured with human CD3+ T cells, 72 hr, luminescence; without GSI: 0.108 nM
  EC50 of cell viability (killing) of OPM2-Luc cells co-cultured with human CD3+ T cells, 72 hr, luminescence; with GSI: 0.0033 nM
  EC50 of cell viability (killing) of OPM2-Luc cells co-cultured with human CD3+ T cells, 72 hr, luminescence; without GSI: 0.0528 nM
  EC50 of cell viability (killing) of RPMI8226-Luc cells co-cultured with human CD3+ T cells, 72 hr, luminescence; with GSI: 0.0017 nM
  EC50 of cell viability (killing) of RPMI8226-Luc cells co-cultured with human CD3+ T cells, 72 hr, luminescence; without GSI: 0.0092 nM
